Results taken from PMC10457294 (2023).

T1: CPXV M2 (cowpox virus M2), recombinant, His-tagged (cowpox virus, UniProt Q8QN22 18-220)
T1 chain: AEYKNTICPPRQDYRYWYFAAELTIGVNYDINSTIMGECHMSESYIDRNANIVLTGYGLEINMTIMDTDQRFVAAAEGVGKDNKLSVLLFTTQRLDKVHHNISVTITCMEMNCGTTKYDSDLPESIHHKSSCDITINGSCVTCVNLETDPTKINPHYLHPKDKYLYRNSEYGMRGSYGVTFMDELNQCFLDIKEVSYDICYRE

B1: human B7.1 ectodomain fused to human Fc (Fc fusion)
chain: VIHVTKEVKEVATLSCGHNVSVEELAQTRIYWQKEKKMVLTMMSGDMNIWPEYKNRTIFDITNNLSIVILALRPSDEGTYECVVLKYEKDAFKREHLAEVTLSVKADFPTPSISDFEIPTSNIRRIICSTSGGFPEPHLSWLENGEELNAINTTVSQDPETELYAVSSKLDFNMTTNHSFMCLIKYGHLRVNQTFNWNTT
B2: mouse B7.2 ectodomain fused to human Fc (Fc fusion)
chain: VSVETQAYFNGTAYLPCPFTKAQNISLSELVVFWQDQQKLVLYEHYLGTEKLDSVNAKYLGRTSFDRNNWTLRLHNVQIKDMGSYDCFIQKKPPTGSIILQQTLTELSVIANFSEPEIKLAQNVTGNSGINLTCTSKQGHPKPKKMYFLITNSTNEYGDNMQISQDNVTELFSISNSLSLSFPDGVWHMTVVCVLETESMKISSKPLNFTQEFPSPQTYWKE
B3: mouse B7.1 ectodomain fused to human Fc (Fc fusion)
chain: VDEQLSKSVKDKVLLPCRYNSPHEDESEDRIYWQKHDKVVLSVIAGKLKVWPEYKNRTLYDNTTYSLIILGLVLSDRGTYSCVVQKKERGTYEVKHLALVKLSIKADFSTPNITESGNPSADTKRITCFASGGFPKPRFSWLENGRELPGINTTISQDPESELYTISSQLDFNTTRNHTIKCLIKYGDAHVSEDFTWEKPPEDPPDSK
B4: human B7.2 ectodomain, His-tagged (domain or fragment)
chain: LKIQAYFNETADLPCQFANSQNQSLSELVVFWQDQENLVLNEVYLGKEKFDSVHSKYMGRTSFDSDSWTLRLHNLQIKDKGLYQCIIHHKKPTGMIRIHQMNSELSVLANFSQPEIVPISNITENVYINLTCSSIHGYPEPKKMSVLLRTKNSTIEYDGVMQKSQDNVTELYDVSISLSVSFPDVTSNMTIFCILETDKTRLLSSPFSIELED
B5: human B7.1 ectodomain, His-tagged (domain or fragment)
chain: B1 chain
B6: human B7.2 ectodomain fused to human Fc (Fc fusion)
chain: B4 chain

Columns and labels:
Assay in all cases: BLI
[1] = molecular target: T2, MPXV M2 (monkeypox virus M2 protein), His-tagged, wild type (monkeypox virus (Clade I), UniProt Q8V554 18-220)
[2] = molecular target: T1, CPXV M2 (cowpox virus M2), recombinant, …
[3] = molecular target: T2, MPXV M2 (monkeypox virus M2 protein), …; remark: listed apart in the source
[4] = molecular target: T1, CPXV M2 (cowpox virus M2), recombinant, …
[5] = molecular target: MPXV Bio-M2 (site-specifically biotinylated MPXV Avi-M2) (monkeypox virus (Clade I), UniProt Q8V554 18-220)

Row | Binder | koff [1] [s⁻¹] | koff [2] [s⁻¹] | Kd [3] [nM] | Kd [4] [nM] | koff [5] [s⁻¹]
1 | B1 | 2.91e-05 | – | – | – | –
2 | B2 | 0.689 | 0.000363 | 13600 | 8 | –
3 | B3 | 2.92e-05 | 0.000109 | 0.243 | 1.48 | –
4 | B4 | – | – | – | – | 0.0334
5 | B5 | – | – | – | – | 0.00676
6 | B6 | 9.75e-06 | – | – | – | –
